Values quoted from earlier work as cited in publication PMC8364556.

Target: IL-10R complex (Homo sapiens) (UniProt Q13651)
Sequence (Q13651 22-235, chain 1 of 2): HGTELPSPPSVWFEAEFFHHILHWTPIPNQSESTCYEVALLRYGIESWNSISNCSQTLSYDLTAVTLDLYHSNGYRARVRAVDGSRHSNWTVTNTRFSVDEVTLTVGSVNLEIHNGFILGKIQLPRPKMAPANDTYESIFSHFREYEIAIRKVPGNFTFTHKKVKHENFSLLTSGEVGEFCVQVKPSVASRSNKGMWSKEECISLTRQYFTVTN
Sequence (Q08334 20-220, chain 2 of 2, further chain): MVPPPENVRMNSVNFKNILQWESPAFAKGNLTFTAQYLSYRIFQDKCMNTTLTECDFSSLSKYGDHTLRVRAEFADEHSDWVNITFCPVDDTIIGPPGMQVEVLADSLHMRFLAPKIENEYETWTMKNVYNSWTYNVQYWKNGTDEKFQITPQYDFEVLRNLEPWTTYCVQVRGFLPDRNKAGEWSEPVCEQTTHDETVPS

Chain of IL-10 (P22301 19-178): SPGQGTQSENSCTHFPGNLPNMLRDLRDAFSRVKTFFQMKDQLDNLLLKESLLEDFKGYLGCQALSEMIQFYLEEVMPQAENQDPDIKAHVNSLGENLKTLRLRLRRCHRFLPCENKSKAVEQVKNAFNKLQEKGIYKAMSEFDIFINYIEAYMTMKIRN

Kd: 0.56 nM
Substance: IL-10 (from UniProt P22301)
